Experiment: yeast display, Sf9 membrane polyspecificity reagent, FACS + sequencing; frameworks hold sequencing errors
Outline: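 Nanobodies from a synthetic yeast display library (Saccharomyces cerevisiae BJ5465), induced 36–48 hours with galactose, were stained 1 hour at 4 °C with 10% biotinylated, detergent-solubilized Sf9 membrane reagent, enriched on streptavidin microbeads, then FACS-sorted. Anti-HA (expression) and streptavidin (reagent binding) fluorescence set low and high (top ~1%) gates. Polyreactivity labels come from the gate of origin. Genes were colony-PCR amplified, MiSeq 2 × 250 sequenced and filtered by CDR length.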

Sequence | polyreactivity (PSR sort gate)
QVQLVESGGGLVQAGGSLRLSCAATGLIFRSYAMGWYRQAPGKDRELVARISIRGGSTYYADSVKGRFTISRDNAKNTGSLQMNSLKPEDTAVYYCAAVGSFRGYRYDYWGQGTQVTVSS | high polyreactivity
QVQLVESGGGLVQAGGSLRLSCAATGLIFSLYAMGWYRQAPGKERELVAAISASDGSTYYADSVKGRFTISRDNAKNTVYLQMNSLKPEDTAVYYCAADSRPTQEYDYWGQGTQVTVSS | low polyreactivity
QVQLVESGGGLVQAGGSLRLSCAATGLIIRYYAMGWYRQAPGKEREFVAAITWNGGSTYADSVKGRFTISRDNAKNTVYLQMNSLKPEDTAVYYSAADLSYWDDFDYWGQGTQVTVSS | low polyreactivity
QVQLVESGGGLVQAGGSLRLSCAATGLIIYRNAMGWYRQAPGKEREFVAAISYSGGSTSYADSVKGRLTISRDNAKNTVYLQMNSLKPEDTAVYYCAVDQSRGWFYLYYYWGQGTQVTVSS | low polyreactivity
QVQLVESGGGLVQAGGSLRLSCAATGMIYERNAMGWYRQAPGKERELVAAITRSGSRTYYADSVKGRFTISRDNAKNTVYLQMNSLKPEDTAVYYCAKRSGYRAHYGYWGQGTQVTVSS | high polyreactivity
QVQLVESGGGLVQAGGSLRLSCAATGNIFTPYTMGWYRQAPGKERELVASINNAGTTKYADSVKGRFTISRDNAKTTVYLQMNSLKPEDTAVYYCAAQRRHALSSYPKHYYWGQGTQVTVSS | low polyreactivity
QVQLVESGGGLVQAGGSLRLSCAATGRIFHRYAMGWYRQAPGKEREFVAAITYSTGTTYYADSVKGRFTISRDNAKNTVYLQMNSLKPEDTAVYYCAKVSRFWHKSWFAYGYDYWGQGTQVTVSS | low polyreactivity
QVQLVESGGGLVQAGGSLRLSCAATGRIFHSNAMGWYRQAPGKERELVAVITKNGGSTYYADSVKGRFTISRDNAKNTVYLQMNSLKPEDTAVYYCNKRAQYTYYGRDYWGQGTQVTVSS | high polyreactivity
QVQLVESGGGLVQAGGSLRLSCAATGRIFNPNAMGWYRQAPGKERELVAAITSGDSTNYADSVKGRFTISRDNAKNTVYLQMNSLKPEDTAVYYCAAGPSYRPPWLRQGGYDYWGQGTQVTVSS | low polyreactivity
QVQLVESGGGLVQAGGSLRLSCAATGRIFTYMGWYRQAPGKERELVAGISWRGTSTYYADSVKGRFTISRDNAKNTVYLQMNSLKPEDTAVYYCAARWAYHVRGDYWGQGTQVTVSS | low polyreactivity
QVQLVESGGGLVQAGGSLRLSCAATGRIVRGNAMGWYRQAPGKERELVAAISTRGGRTYYADSVKGRFTISRDNAKNTVYLQMTSLKPQDTAVYYCNKGDSASSLDYWGQGTQVTVSS | high polyreactivity
QVQLVESGGGLVQAGGSLRLSCAATGRNFRYNAIGWYRQATGKERELVATISRGGGSTYYADSVKGRFTISRDNAQNTVYLQMNSLKPEDTAVYYCATRYYQDIVGYSRYDYWGQGTQVTVSS | high polyreactivity
QVQLVESGGGLVQAGGSLRLSCAATGRTFAVYAMGWYRQAPGKERELVAAISSGGSTYYADSVKGRFTIARDNAKNTVYLQMNSLKPEDTAVYYCTARWGYRRGYWGQGTQVTVSS | high polyreactivity
QVQLVESGGGLVQAGGSLRLSCAATGRTFGVNAMAWYRQAPGKESELVASIRWNGGSTYYADSVKGRFTISRDNAKNTVYLQMNSLKPEDTAVYYCNAVRRYRSREFDYWGQGSQVTVSS | low polyreactivity
QVQLVESGGGLVQAGGSLRLSCAATGRTFINYAMGWYRQAPGKERALVAAITTGGRTNYADSVKGRFTISRDNAKNTVYLQMNSLKPEDTAVFYCAADRYYWGRYTLNYWGQGTQVTVSS | low polyreactivity
QVQLVESGGGLVQAGGSLRLSCAATGRTFSTNAMGGSRQAPGKERELVAAITSSGGRTYYADSVKGRFTISRDNAKNTVYLQMNSLKPEDTAVYYCAAYPWYYRGYWFGYWGQGTQVTVSS | high polyreactivity

Sequence | polyreactivity (PSR sort gate)
QVQLVESGGGLVQAGGSLRLSCAATGRTLKYNAMGRYRKAPGKERELVAAISYSGSSTYYADSVKGRFTISRDNAKNTVYLQMHSLKPEDTAVYYCNTARPTAAYDYWGQGTQVTVSS | low polyreactivity
QVQLVESGGGLVQAGGSLRLSCAATGSIFAVYAMGWYRQAPGKERELVARITRGGGSTYYADSVKGRFTISRDNAKNTVYLQMNSLKPEDTAVYYCAAARWSQYRTWMNYWGQGTQVTVSS | high polyreactivity
QVQLVESGGGLVQAGGSLRLSCAATGSIFEGYAMGWYRQAPGKERELVARITSDDDSTYYADSVKGRFTISRDNAKNSVYLQMNSLKPEDTAVYYCNADYYWTSLAMDSWGQGTQVTVSS | low polyreactivity
QVQLVESGGGLVQAGGSLRLSCAATGSIFNIYTMGRYRQAPGKERELVAVITSSGGKYYADSLKGRFTISRDNAMNTVYLQMNSLKPEDTAVYFCAARRRPYSPHLGYWGQGTQVTVSS | high polyreactivity
QVQLVESGGGLVQAGGSLRLSCAATGSIFPANVMGWYRQAPGKERELVASINSGDDTNYADSVKGRFTISRDNAKNTVYLQMNSLKPEDTAVYYCATGDWYPYGDYIYDYWGQGTQVTVSS | low polyreactivity
QVQLVESGGGLVQAGGSLRLSCAATGSIFVPNTMGWYRQAPGKERELVADINSDTGRTYYADSVKGRFTISRDNAKNTVYLQMNSLKPEDTAVYYCAAEWYSFWSSVEYDYWGQGTQVTVSS | low polyreactivity
QVQLVESGGGLVQAGGSLRLSCAATGSNFTGNAMVWYRQAPGKERELVAAISRSGGSTYYADSVKGRYTISRDNAKNTVYLQMISLKPEDTAVYYCAAYRTHGPPRAIRFDYWGQGTQVTVSS | high polyreactivity
QVQLVESGGGLVQAGGSLRLSCAATGSTFGPYVMGWYRQAPGKERELVAVISGGSTDYADSVKGRFTISRDNAKNTVYLQMNTLKPEDTAVYYCNAVLYVQDRLTRVDYDYWGQGTQVTVSS | high polyreactivity
QVQLVESGGGLVQAGGSLRLSCAATGSTFVYYALGWYRPAPGKERELVAAITASGGGTYYADSVKGRFTISRDNAKNTVYLQMNSLKPEDTAVYYCNRGYDYWGQGTQVTGSS | low polyreactivity
QVQLVESGGGLVQAGGSLRLSCAATGSTFYRNAMGWYRQAPGKEREFVAAISFRGGGTYADSVKGRFTISRDNAKNTVFLQMNSLKPEDTAVYYCADDHLSYRRRYEYWGQGTQVTVSS | low polyreactivity
QVQLVESGGGLVQAGGSLRLSCAAWSIFYLNAMGWYRQAPGKERELVAAISSAGSTYYADSVKGRFTISRDNAKNTVYLQMNSLKPEDTAVYYCAAYWYDSPGVTEIWYDYWGQGTQVTVSS | low polyreactivity
QVQLVESGGGLVQAGGSLRLSCAAYAMGWYRQAPGKERELVAAISSSGGSTYYADSVKGRFTISRDNAKNTVYLQMNSLKPEDTAVYYCARDPDTYFFPPTGYYTSGFDSWGQGTQVTVSS | low polyreactivity
QVQLVESGGGLVQAGGSLRLSCAAYGFIFWYYDMGWYRQAPGKETELVAGITSGGSTNYEDSVKGRFTISRDNATNTVYLQMNRLKPEDTAVYYCAATYYGYHIRDDYWGQGTLVTVSS | low polyreactivity
QVQLVESGGGLVQAGGSLRLSCAAYGFTFAAYSMGWYRQAPGKEREFVAAITSRDGTTYYADSVKGRFTISGYNAKNTVYLQMNSLKPEDTAVFYCAKDHFNWGVSEVDSWRQGTQVTVSS | low polyreactivity
QVQLVESGGGLVQAGGSLRLSCAAYGFTIYYYTMGWYRQAPGKERELFAAISHSGSSTYYADSVKGRFTISRDNAKKTVNLQMNSLKPEDTAVYYCAASRSKNSALGGRVSIGDYWGQGTQVTVSS | high polyreactivity
QVQLVESGGGLVQAGGSLRLSCAAYGGTFNGNTMGWYRQAPGKERELVAVIDWSGGSTYYADSVKGRFTISRDNAKNTVYLQMNSLKPEDTAVYYCNADSDAQFREPKGLYYWGQGTQVTVSS | low polyreactivity
